{"source": "the supplement of paper PMC11811203", "parents": {"B1": {"name": "THAP1; numbered along this chain (parent)", "chain": "MVQSCSAYGCKNRYDKDKPVSFHKFPLTRPSLCKEWEAAVRRKNFKPTKYSSICSEHFTPDCFKRECNNKLLKENAVPTIFLCTEPHDKKEDLLEPQEQLPPPPLPPPVSQVDAAIGLLMPPLQTPVNLSVFCDHNYTVEDTMHQRKRIHQLEQQVEKLRKKLKTAQQRCRRQERQLEKLKEVVHFQKEKDDVSERGYVILPNDYFEIVEVPA"}}, "data": [{"variants_of": "B1", "experiment": "THAP1 transcriptional activity (GFP+/GFP- enrichment relative to wild-type constructs) (ratio to WT); higher = more THAP1 activity (PSMB5 reporter activation)", "conditions": "with PSMB5 promoter-GFP reporter", "how_it_was_run": "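In duplicate, a lentivirus-delivered library with every residue from 2–213 of human THAP1 changed to all 20 amino acids was introduced at MOI ~0.3 into THAP1-knockout HEK-293T cells carrying endogenous PSMB5 tagged by mClover3 knock-in. Five days on, BFP+ cells were binned as GFP-dim or GFP-bright, and Illumina sequencing of genomic DNA amplicons counted each variant. Activity is the bright/dim read fold change, averaged over replicates and scaled to the mean of wild-type synonymous constructs.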", "values": [{"variant": "K90W", "THAP1 transcriptional activity": 0.775}, {"variant": "K90T", "THAP1 transcriptional activity": 1.43}, {"variant": "K90Y", "THAP1 transcriptional activity": 0.498}, {"variant": "K90S", "THAP1 transcriptional activity": 1.77}, {"variant": "L100M", "THAP1 transcriptional activity": 2.37}, {"variant": "L100P", "THAP1 transcriptional activity": 1.9}, {"variant": "L100H", "THAP1 transcriptional activity": 0.606}, {"variant": "L100S", "THAP1 transcriptional activity": 2.08}, {"variant": "L100G", "THAP1 transcriptional activity": 0.906}, {"variant": "L100K", "THAP1 transcriptional activity": 1.18}, {"variant": "L100D", "THAP1 transcriptional activity": 1.66}, {"variant": "L100Q", "THAP1 transcriptional activity": 1.41}, {"variant": "L100C", "THAP1 transcriptional activity": 0.796}, {"variant": "L100I", "THAP1 transcriptional activity": 1.56}, {"variant": "L100R", "THAP1 transcriptional activity": 1.46}, {"variant": "L100A", "THAP1 transcriptional activity": 1.25}, {"variant": "Q97F", "THAP1 transcriptional activity": 1.2}, {"variant": "Q97H", "THAP1 transcriptional activity": 0.853}, {"variant": "Q97M", "THAP1 transcriptional activity": 1.09}, {"variant": "Q97K", "THAP1 transcriptional activity": 0.467}, {"variant": "Q97W", "THAP1 transcriptional activity": 0.632}, {"variant": "Q97D", "THAP1 transcriptional activity": 1.45}, {"variant": "Q97P", "THAP1 transcriptional activity": 1.25}, {"variant": "Q97S", "THAP1 transcriptional activity": 0.872}, {"variant": "Q97G", "THAP1 transcriptional activity": 0.874}, {"variant": "Q97Y", "THAP1 transcriptional activity": 0.765}, {"variant": "Q97I", "THAP1 transcriptional activity": 2.53}, {"variant": "Q97N", "THAP1 transcriptional activity": 0.877}, {"variant": "Q97R", "THAP1 transcriptional activity": 0.945}, {"variant": "Q97L", "THAP1 transcriptional activity": 1.55}, {"variant": "Q97C", "THAP1 transcriptional activity": 1.33}, {"variant": "Q97A", "THAP1 transcriptional activity": 0.83}, {"variant": "Q97V", "THAP1 transcriptional activity": 0.752}, {"variant": "Q97T", "THAP1 transcriptional activity": 1.88}, {"variant": "Q97E", "THAP1 transcriptional activity": 1.24}, {"variant": "L94G", "THAP1 transcriptional activity": 1.56}, {"variant": "L94P", "THAP1 transcriptional activity": 1.67}, {"variant": "L94V", "THAP1 transcriptional activity": 1.47}, {"variant": "L94S", "THAP1 transcriptional activity": 1.71}, {"variant": "L94T", "THAP1 transcriptional activity": 1.14}, {"variant": "L94A", "THAP1 transcriptional activity": 1.59}, {"variant": "L94W", "THAP1 transcriptional activity": 0.914}, {"variant": "L94M", "THAP1 transcriptional activity": 1.84}, {"variant": "L94R", "THAP1 transcriptional activity": 2.34}, {"variant": "L94E", "THAP1 transcriptional activity": 1.42}, {"variant": "L94Y", "THAP1 transcriptional activity": 1.34}, {"variant": "L94C", "THAP1 transcriptional activity": 0.962}, {"variant": "L94I", "THAP1 transcriptional activity": 2.23}, {"variant": "L94D", "THAP1 transcriptional activity": 1.28}, {"variant": "L93G", "THAP1 transcriptional activity": 1.26}, {"variant": "L93A", "THAP1 transcriptional activity": 1.26}, {"variant": "L93D", "THAP1 transcriptional activity": 1.14}, {"variant": "L93F", "THAP1 transcriptional activity": 0.989}, {"variant": "L93Y", "THAP1 transcriptional activity": 1.08}, {"variant": "L93S", "THAP1 transcriptional activity": 0.575}, {"variant": "L93H", "THAP1 transcriptional activity": 1.01}, {"variant": "L93W", "THAP1 transcriptional activity": 1.12}, {"variant": "L93P", "THAP1 transcriptional activity": 1.58}, {"variant": "L93N", "THAP1 transcriptional activity": 1.51}, {"variant": "L93Q", "THAP1 transcriptional activity": 1.67}, {"variant": "L93V", "THAP1 transcriptional activity": 1.15}, {"variant": "L93E", "THAP1 transcriptional activity": 1.43}, {"variant": "L93C", "THAP1 transcriptional activity": 1.36}, {"variant": "L93I", "THAP1 transcriptional activity": 1.37}, {"variant": "L93M", "THAP1 transcriptional activity": 0.701}, {"variant": "L93K", "THAP1 transcriptional activity": 0.898}, {"variant": "L93T", "THAP1 transcriptional activity": 1.14}, {"variant": "D92I", "THAP1 transcriptional activity": 2.59}, {"variant": "D92E", "THAP1 transcriptional activity": 1.44}, {"variant": "D92A", "THAP1 transcriptional activity": 1.55}, {"variant": "D92P", "THAP1 transcriptional activity": 1.64}, {"variant": "D92F", "THAP1 transcriptional activity": 0.641}, {"variant": "D92G", "THAP1 transcriptional activity": 0.763}, {"variant": "D92Y", "THAP1 transcriptional activity": 0.942}, {"variant": "D92M", "THAP1 transcriptional activity": 0.739}, {"variant": "D92N", "THAP1 transcriptional activity": 1.64}, {"variant": "D92K", "THAP1 transcriptional activity": 1.22}, {"variant": "D92C", "THAP1 transcriptional activity": 0.866}, {"variant": "D92W", "THAP1 transcriptional activity": 0.658}, {"variant": "D92T", "THAP1 transcriptional activity": 0.984}, {"variant": "D92V", "THAP1 transcriptional activity": 0.743}, {"variant": "D92R", "THAP1 transcriptional activity": 1.57}, {"variant": "Q99R", "THAP1 transcriptional activity": 1.3}, {"variant": "Q99N", "THAP1 transcriptional activity": 2.66}, {"variant": "Q99E", "THAP1 transcriptional activity": 1.22}, {"variant": "Q99A", "THAP1 transcriptional activity": 0.795}, {"variant": "Q99D", "THAP1 transcriptional activity": 0.731}, {"variant": "Q99W", "THAP1 transcriptional activity": 0.514}, {"variant": "Q99P", "THAP1 transcriptional activity": 1.81}, {"variant": "Q99I", "THAP1 transcriptional activity": 1.32}, {"variant": "Q99F", "THAP1 transcriptional activity": 0.667}, {"variant": "Q99L", "THAP1 transcriptional activity": 1.11}, {"variant": "Q99C", "THAP1 transcriptional activity": 0.535}, {"variant": "Q99S", "THAP1 transcriptional activity": 0.884}, {"variant": "Q99G", "THAP1 transcriptional activity": 1.87}, {"variant": "Q99K", "THAP1 transcriptional activity": 1.5}, {"variant": "Q99V", "THAP1 transcriptional activity": 0.773}, {"variant": "Q99H", "THAP1 transcriptional activity": 1.07}, {"variant": "Q99T", "THAP1 transcriptional activity": 1.16}, {"variant": "E95S", "THAP1 transcriptional activity": 1.02}, {"variant": "E95K", "THAP1 transcriptional activity": 1.66}, {"variant": "E95M", "THAP1 transcriptional activity": 0.897}, {"variant": "E95G", "THAP1 transcriptional activity": 1.26}, {"variant": "E95L", "THAP1 transcriptional activity": 0.979}, {"variant": "E95Q", "THAP1 transcriptional activity": 1.81}, {"variant": "E95C", "THAP1 transcriptional activity": 1.23}, {"variant": "E95Y", "THAP1 transcriptional activity": 1.04}, {"variant": "E95P", "THAP1 transcriptional activity": 1.22}, {"variant": "E95R", "THAP1 transcriptional activity": 1.65}, {"variant": "E95I", "THAP1 transcriptional activity": 1.13}, {"variant": "E95N", "THAP1 transcriptional activity": 1.31}, {"variant": "E95H", "THAP1 transcriptional activity": 1.29}, {"variant": "E95A", "THAP1 transcriptional activity": 1.46}, {"variant": "E95V", "THAP1 transcriptional activity": 0.815}, {"variant": "E95D", "THAP1 transcriptional activity": 1.16}, {"variant": "E91S", "THAP1 transcriptional activity": 1.71}, {"variant": "E91L", "THAP1 transcriptional activity": 0.546}, {"variant": "E91D", "THAP1 transcriptional activity": 1.04}, {"variant": "E91G", "THAP1 transcriptional activity": 1.01}, {"variant": "E91K", "THAP1 transcriptional activity": 2.46}, {"variant": "E91V", "THAP1 transcriptional activity": 0.513}, {"variant": "E91T", "THAP1 transcriptional activity": 0.885}, {"variant": "E91Y", "THAP1 transcriptional activity": 0.85}, {"variant": "E91M", "THAP1 transcriptional activity": 0.596}, {"variant": "E91N", "THAP1 transcriptional activity": 0.857}, {"variant": "E91F", "THAP1 transcriptional activity": 0.403}, {"variant": "E91Q", "THAP1 transcriptional activity": 1.02}, {"variant": "E91I", "THAP1 transcriptional activity": 0.999}, {"variant": "E91P", "THAP1 transcriptional activity": 0.793}, {"variant": "E91A", "THAP1 transcriptional activity": 0.844}, {"variant": "E91W", "THAP1 transcriptional activity": 0.619}, {"variant": "E98Y", "THAP1 transcriptional activity": 0.675}, {"variant": "E98A", "THAP1 transcriptional activity": 1.51}, {"variant": "E98S", "THAP1 transcriptional activity": 1.19}, {"variant": "E98T", "THAP1 transcriptional activity": 1.66}, {"variant": "E98D", "THAP1 transcriptional activity": 1.77}, {"variant": "E98I", "THAP1 transcriptional activity": 1.74}, {"variant": "E98Q", "THAP1 transcriptional activity": 1.69}, {"variant": "E98H", "THAP1 transcriptional activity": 0.824}, {"variant": "E98R", "THAP1 transcriptional activity": 0.908}, {"variant": "E98N", "THAP1 transcriptional activity": 1.21}, {"variant": "E98V", "THAP1 transcriptional activity": 1.56}, {"variant": "E98L", "THAP1 transcriptional activity": 0.875}, {"variant": "E98F", "THAP1 transcriptional activity": 0.462}, {"variant": "E98G", "THAP1 transcriptional activity": 1.03}, {"variant": "E98W", "THAP1 transcriptional activity": 0.567}, {"variant": "E98C", "THAP1 transcriptional activity": 0.653}, {"variant": "E98M", "THAP1 transcriptional activity": 0.62}, {"variant": "E98P", "THAP1 transcriptional activity": 0.816}, {"variant": "E98K", "THAP1 transcriptional activity": 1.43}, {"variant": "P96I", "THAP1 transcriptional activity": 0.683}, {"variant": "P96D", "THAP1 transcriptional activity": 1.15}, {"variant": "P96G", "THAP1 transcriptional activity": 1.55}, {"variant": "P96Q", "THAP1 transcriptional activity": 0.834}, {"variant": "P96A", "THAP1 transcriptional activity": 1.82}, {"variant": "P96F", "THAP1 transcriptional activity": 0.885}, {"variant": "P96N", "THAP1 transcriptional activity": 2.72}, {"variant": "P96R", "THAP1 transcriptional activity": 1.45}, {"variant": "P96S", "THAP1 transcriptional activity": 1.72}, {"variant": "P96T", "THAP1 transcriptional activity": 1.6}, {"variant": "P96W", "THAP1 transcriptional activity": 0.452}, {"variant": "P96C", "THAP1 transcriptional activity": 0.965}, {"variant": "P96E", "THAP1 transcriptional activity": 0.84}, {"variant": "P96V", "THAP1 transcriptional activity": 0.729}, {"variant": "P96H", "THAP1 transcriptional activity": 0.971}, {"variant": "P96K", "THAP1 transcriptional activity": 1.37}, {"variant": "P96L", "THAP1 transcriptional activity": 1.58}]}]}
